According to US20240002331A1 (TIDAL THERAPEUTICS, published 2024):

Assays:
[1] = target: mouse CD4 on primary murine T-cells (murine) (UniProt P06332); assay: in vivo, DiI-labelled targeted LNPs injected i.v. in BALB/c mice, flow cytometry of blood 24 hours after injection; untargeted LNPs ˜2%
[2] = target: mouse CD8 on primary murine T-cells (murine) (UniProt P01731); assay: in vivo, DiI-labelled targeted LNPs injected i.v. in BALB/c mice, flow cytometry of blood 24 hours after injection; untargeted LNPs <2%
[3] = target: T1, CD20 on Raji (B-cell) cells (UniProt P11836 1-297, limits assumed); assay: cell-based or functional assay
T1 sequence (looked up): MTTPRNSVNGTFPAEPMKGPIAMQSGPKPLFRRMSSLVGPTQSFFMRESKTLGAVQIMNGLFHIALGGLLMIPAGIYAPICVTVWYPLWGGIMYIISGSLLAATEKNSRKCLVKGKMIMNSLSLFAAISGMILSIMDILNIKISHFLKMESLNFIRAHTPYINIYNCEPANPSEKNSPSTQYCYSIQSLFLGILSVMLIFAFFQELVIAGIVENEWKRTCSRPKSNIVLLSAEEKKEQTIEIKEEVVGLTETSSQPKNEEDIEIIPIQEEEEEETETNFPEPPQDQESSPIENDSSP

[4] = target: T2, human CD2 on primary human T-cells (human, UniProt P06729 25-351); assay: DiI-labelled LNP with inserted Fab conjugate on primary human CD3+ T cells, flow cytometry
T2 construct: whole, on cells
T2 sequence (looked up): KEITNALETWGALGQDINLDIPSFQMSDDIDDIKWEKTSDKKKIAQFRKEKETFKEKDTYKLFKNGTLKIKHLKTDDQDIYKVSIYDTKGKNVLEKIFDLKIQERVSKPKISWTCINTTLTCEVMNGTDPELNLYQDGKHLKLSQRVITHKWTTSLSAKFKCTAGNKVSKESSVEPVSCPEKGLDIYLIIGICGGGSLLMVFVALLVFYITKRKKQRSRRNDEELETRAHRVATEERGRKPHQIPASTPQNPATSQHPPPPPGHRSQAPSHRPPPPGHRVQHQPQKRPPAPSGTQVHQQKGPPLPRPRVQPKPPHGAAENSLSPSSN

[5] = target: T3, human CD7 on primary human T-cells (human, UniProt P09564 26-240); assay: DiI-labelled LNP with inserted Nb conjugate on primary human CD3+ T cells, flow cytometry
T3 construct: whole, on cells
T3 sequence (looked up): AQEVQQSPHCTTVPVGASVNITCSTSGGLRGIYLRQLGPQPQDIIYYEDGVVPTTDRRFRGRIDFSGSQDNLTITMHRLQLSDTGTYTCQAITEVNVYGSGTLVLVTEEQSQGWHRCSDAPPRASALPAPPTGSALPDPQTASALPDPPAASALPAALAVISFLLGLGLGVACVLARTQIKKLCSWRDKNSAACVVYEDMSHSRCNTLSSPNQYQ

[6] = target: T4, human CD8 on primary human cells (CD8 T-cells, NK-cells) (human, UniProt P01732 22-235); assay: DiI-labelled LNP with inserted Fab conjugate, human whole blood, 24 h, flow cytometry (% DiI+ and DiI MFI) on CD4 and CD8 T-cells
T4 construct: whole, on cells; also called CD8 receptor
T4 sequence (P01732 22-235): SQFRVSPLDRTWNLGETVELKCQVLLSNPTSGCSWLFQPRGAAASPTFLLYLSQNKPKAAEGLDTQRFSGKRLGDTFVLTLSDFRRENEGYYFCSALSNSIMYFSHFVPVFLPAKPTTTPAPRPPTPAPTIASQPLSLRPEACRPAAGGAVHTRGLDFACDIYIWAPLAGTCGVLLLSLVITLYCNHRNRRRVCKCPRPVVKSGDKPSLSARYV

Sequence of mouse CD8 on primary murine T-cells (murine) (P01731 28-247): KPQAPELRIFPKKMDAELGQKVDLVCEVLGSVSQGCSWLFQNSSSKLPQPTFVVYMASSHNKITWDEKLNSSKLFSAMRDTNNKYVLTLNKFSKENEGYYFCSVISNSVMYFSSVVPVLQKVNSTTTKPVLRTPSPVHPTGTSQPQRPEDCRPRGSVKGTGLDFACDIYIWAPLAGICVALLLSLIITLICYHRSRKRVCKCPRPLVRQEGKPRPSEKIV
Sequence of mouse CD4 on primary murine T-cells (murine) (P06332 27-457): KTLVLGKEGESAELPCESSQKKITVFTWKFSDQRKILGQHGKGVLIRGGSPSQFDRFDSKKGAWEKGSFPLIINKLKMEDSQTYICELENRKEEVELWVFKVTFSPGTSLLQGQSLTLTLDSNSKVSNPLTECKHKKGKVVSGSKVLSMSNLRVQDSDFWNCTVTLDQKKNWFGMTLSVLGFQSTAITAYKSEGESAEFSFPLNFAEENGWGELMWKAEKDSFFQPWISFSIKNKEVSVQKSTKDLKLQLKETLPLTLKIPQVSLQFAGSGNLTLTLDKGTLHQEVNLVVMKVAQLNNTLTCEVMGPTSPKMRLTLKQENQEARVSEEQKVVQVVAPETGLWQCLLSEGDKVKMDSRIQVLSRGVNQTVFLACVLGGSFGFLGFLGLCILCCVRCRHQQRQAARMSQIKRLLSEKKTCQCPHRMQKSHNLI

Work on “anti-mouse CD4 Fab GK1.5, inserted in LNPs” yielded a % of the CD3+CD4+ cell population DiI-positive [1] of 67%.

“anti-mouse CD8 Fab YTS156.7.7, inserted in LNPs” was tested, and the % of CD3+CD8+ T-cells in the blood with LNP-association (DiI+) [2] was 78%.

B1: TTR-023 anti-CD20 (Leu-16) CAR (other)
chain: DYKAKEVQLQQSGAELVKPGASVKMSCKASGYTFTSYNMHWVKQTPGQGLEWIGAIYPGNGDTSYNQKFKGKATLTADKSSSTAYMQLSSLTSEDSADYYCARSNYYGSSYWFFDVWGAGTTVTVSSGGGSGGGSGGGGSSDIVLTQSPAILSASPGEKVTMTCRASSSVNYMDWYQKKPGSSPKPWIYATSNLASGVPARFSGSGSGTSYSLTISRVEAEDAATYYCQQWSFNPPTFGGGTKLEIKGGGGSAAAIEVMYPPPYLDNEKSNGTIIHVKGKHLCPSPLFPGPSKPFWVLVVVGGVLACYSLLVTVAFIIFWVRSKRSRLLHSDYMNMTPRRPGPTRKHYQPYAPPRDFAAYRSRVKFSRSAEPPAYQQGQNQLYNELNLGRREEYDVLDKRRGRDPEMGGKPRRKNPQEGLYNELQKDKMAEAYSEIGMKGERRRGKGHDGLYQGLSTATKDTYDALHMQALPPR
With B1 the “% of dead Raji cells in co-culture with CAR-T cells (Lipid 9 or DLin-KC3-DMA LNPs), against mCherry transfected T-cells” value [3] was 4 fold and the “% of dead Raji cells in co-culture with CAR-T cells (Lipid 15 or DLin-KC3-DMA LNPs), against mCherry transfected T-cells” value [3] was 4 fold.

B2: anti-CD2 9.6 Fab NoDS, lipid conjugate (Fab, V domains shown)
VH: QVQLQQPGAELVRPGSSVKLSCKASGYTFTRYWIHWVKQRPIQGLEWIGNIDPSDSETHYNQKFKDKATLTVDKSSGTAYMQLSSLTSEDSAVYYCATEDLYYAMEYWGQGTSVTVSS
VL: NIMMTQSPSSLAVSAGEKVTMTCKSSQSVLYSSNQKNYLAWYQQKPGQSPKLLIYWASTRESGVPDRFTGSGSGTDFTLTISSVQPEDLAVYYCHQYLSSHTFGGGTKLEIKR
modifications: DSPE-PEG-maleimide coupled to the C-terminal cysteine in the heavy chain (methods of Example 4)
notes: Inserted in LNPs
B2: binds [4].

B3: anti-CD2 TS2/18.1 Fab NoDS, lipid conjugate (Fab, V domains shown)
VH: EVQLVESGGGLVMPGGSLKLSCAASGFAFSSYDMSWVRQTPEKRLEWVAYISGGGFTYYPDTVKGRFTLSRDNAKNTLYLQMSSLKSEDTAMYYCARQGANWELVYWGQGTLVTVSA
VL: DIVMTQSPATLSVTPGDRVFLSCRASQSISDFLHWYQQKSHESPRLLIKYASQSISGIPSRFSGSGSGSDFTLSINSVEPEDVGVYFCQNGHNFPPTFGGGTKLEIKR
modifications: DSPE-PEG-maleimide coupled to the C-terminal cysteine in the heavy chain (methods of Example 4)
notes: Inserted in LNPs
B3: binds [4].

B4: Anti-CD7 V1 Nb, lipid conjugate (VHH)
VHH: DVQLQESGGGLVQAGGSLRLSCAVSGYPYSSYCMGWFRQAPGKEREGVAAIDSDGRTRYADSVKGRFTISQDNAKNTLYLQMNRMKPEDTAMYYCAARFGPMGCVDLSTLSFGHWGQGTQVTVSI
modifications: conjugated to DSPE-3.4K PEG-maleimide (the cysteine is not named in the example)
notes: The entry includes the C-terminal spacer, cysteine and His tag; Inserted in LNPs; also called αCD7
B4: binds [5].

B5: mutOKT8-Fab (non-functional mutated OKT8), DSPE-PEG (2k) lipid conjugate (Fab, V domains shown)
VH: QVQLVQSGAEDKKPGASVKVSCKASGFNIKDTYIHWVRQAPGQGLEWMGRIDPANDNTLYASKFQGRVTITADTSSNTAYMELSSLRSEDTAVYYCGRGAGAYVFDHWGQGTTVTVSS
VL: DIVMTQSPSSLSASVGDRVTITCRTSRSISAALAWYQEKPGKAPKLLIYSGSTLQSGVPSRFSGSGSGTDFTLTISSLQPEDFATYYCQQHNENPLTFGQGTKVEIKR
modifications: DSPE-PEG (2k)-maleimide coupled to the C-terminal cysteine in the heavy chain (conjugated using similar methods as hSP34)
notes: Negative control, inserted in mRNA LNPs; also called muOKT8
B5: no binding [6].
